According to patent US11311626B2, “Plasmin-cleavable anti-insoluble fibrin antibody-drug conjugate” (NATIONAL CANCER CENTER JAPAN, priority 2017, dated 2022):

Experiments:
[1] = system: triple mutant mouse-derived pancreatic cancer cell line; settings: Alexa 647-labeled antibody, 300 μg per mouse, tail vein, imaging 1 h to day 7, FIG. 2
Description: Accordingly, in vivo imaging was performed using the cell line. […] The pancreatic cancer cell line was cultured in 500 mL of a RPMI 1640 (FUJIFILM Wako Pure Chemical Corporation) medium supplemented with 100 mL of inactivated fetal bovine serum (FBS, Gibco) and 10 mL of 100 units/mL Penicillin, 100 μg/mL Streptomycin, and 250 ng/mL Amphotericin B (FUJIFILM Wako Pure Chemical Corporation). The culture supernatant was then removed. The cells were washed with PBS (Invitrogen), and 2 mL of Trypsin-EDTA [0.25% (w/v) trypsin-1.0 mmol/L ethylenediaminetetraacetic acid-4Na Solution with Phenol Red, FUJIFILM Wako Pure Chemical Corporation] was added thereto. The cells were detached by pipetting and placed in a 15-mL tube (Corning Incorporated), followed by centrifugation with a centrifuge (Universal centrifuge 5800, KUBOTA Corporation Co., Ltd.) at 270×g for 3 minutes at 4° C. The supernatant was removed, and the precipitate was resuspended in 10 mL of PBS, followed by centrifugation at 270×g for 3 minutes at 4° C. After repeating this procedure three times, the concentration was adjusted to 2×10^6 cells/50 μL with PBS, and the cell solution was subcutaneously injected to 5-week old BALB/c Slc nu/nu mice (Japan SLC, Inc.) at 50 μL per mouse from the left foot base. […] The control used was InVivoMAb Mouse IgG1 Isotype control (Bio X Cell). […]

[2] = molecular target: peptide of the epitope site of 102-10 (Homo sapiens, UniProt P02675); test: Verification of affinity by SPR (Biacore T200, multi cycle kinetics); assay type: binding; settings: for Dissociation rate constant kd: immobilized epitope peptide of 102-10; for Binding rate constant ka: immobilized epitope peptide of 102-10, antibody 48.875-1500 nM; for Kd: immobilized epitope peptide of 102-10, reference for relative affinity
Description: When an antigen is insoluble, although SPR is not suitable for verifying the affinity of the antigen, measurement by SPR was performed as reference for comparing relative affinity levels between antibodies.
The affinity of an antibody to insoluble fibrin was calculated based on analysis by surface plasmon resonance (SPR) using Biacore T200 (GE Healthcare) to evaluate the intermolecular interaction of the antibody. […] The immobilization was performed using an amine coupling kit (BR-1000-50, GE Healthcare) and setting the […] to 90 RU. Subsequently, an antigen-antibody reaction was performed using an antibody diluted to […], 93.75, 187.5, 375, 750, and 1500 nM with 1× HBS-N buffer by a multi cycle kinetics method under conditions shown in Table 1. After the measurement, analysis using BIA evaluation (GE Healthcare) was performed to determine the KD value, kd value, and ka value.

B1: 99-5: mAb (mouse IgG1) from clone 99-5, mouse immunized with peptide of SEQ ID NO: 26; insoluble fibrin-specific antibody; VH SEQ ID NO: 4, VL SEQ ID NO: 8 (antibody, V domains shown)
VH: MDWLWNLLFLMAAAQSIQAQIQLVQSGPELKKPGETVKISCKASGYTFTNYGMNWVKQAPGKGLKWMGWINTKIGEPTYAEEFKGRFAFSLETSASTAYLQINNLKNEDTATYFCARLLDYWGQGTTLTVSSAKTTPPSV
VL: METDTLLLWVLLLWVPGSTGDIVLTQSPASLAVSLGQRATISCRASESVDSYGNSFMHWYQQKPGQPPKLLIYRASNLESGIPARFSGSGSRTDFTLTINPVEADDVATYYCQQSNEDPRTFGGGTKLEIKRADAAPTVS
Accumulation of antibody to cancer [1]: high | Dissociation rate constant kd [2]: 0.000585 s⁻¹ | Binding rate constant ka [2]: 18000 M⁻¹ s⁻¹ | Kd [2]: 32.6 nM

B2: 1101: mAb (mouse IgG1) from clone 1101, mouse immunized with peptide of SEQ ID NO: 27; insoluble fibrin-specific antibody; VH SEQ ID NO: 12, VL SEQ ID NO: 16 (antibody, V domains shown)
VH: MECNWILPFILSVISGVYSEVQLQQSGTVLARPGASVKMSCKASGFSFTSYWMHWVKQRPGQGLEWIGAIYPGNSDTRNNQKFKGKAKLTAVTSANTAYMELSSLTNEDSAVYYCTRKAHYGNYGFAYWGQGTLVTVSAA
VL: MSGHSRNMKFPSQLLLFLLFRITGIICDIQMTQSSSYLSVSLGGRVTITCKASDHINNWLAWYQQKPGNAPRLLISGATSLETGVPSRFSGSGSGKDYTLSITSLQTEDVATYYCQQYWSTPLTFGAGTKLELKRADAAP
Accumulation of antibody to cancer [1]: high | Dissociation rate constant kd [2]: 0.00325 s⁻¹ | Binding rate constant ka [2]: 93700 M⁻¹ s⁻¹ | Kd [2]: 66.8 nM
